Values of other authors in patent publication US7625865B2, “Insulin highly respirable microparticles” (Universita Degli Studi Di Parma, priority 2004, dated 2009).

Experiments:
[1] = nebulization versus direct instillation of an acidic insulin solution
[2] = intratracheal instillation
[3] = rats

insulin
absorbed fraction, aerosolized insulin versus instilled insulin [1]: 10 fold | bioavailability of formulation at pH 3 versus pH 7 [2]: greater bioavalability | absorption of insulin [3]: rapid absorption
